Reference: patent US20250352667A1
One block for each binder: values may come before it.

Key:
[1] = biological target: KEAP1 (wild-type full-length), His-tagged (human) (UniProt Q14145); assay: AlphaScreen; 9.6 nM FLAG-NRF2, 150 nM His-KEAP1; Rep 2; control for I86V
[2] = biological target: KEAP1 (wild-type full-length), His-tagged (human) (UniProt Q14145); assay: AlphaScreen; 19.2 nM FLAG-NRF2, 150 nM His-KEAP1; Rep 1; control for I86V
[3] = biological target: KEAP1 (wild-type full-length), His-tagged (human) (UniProt Q14145); assay: AlphaScreen; 19.2 nM FLAG-NRF2, 150 nM His-KEAP1; Rep 2; control for I86V
[4] = biological target: KEAP1 (wild-type full-length), His-tagged (human) (UniProt Q14145); assay: AlphaScreen; 76.8 nM FLAG-NRF2, 150 nM His-KEAP1; Rep 1; control for I86V
[5] = biological target: KEAP1 (wild-type full-length), His-tagged (human) (UniProt Q14145); assay: AlphaScreen; 307.2 nM FLAG-NRF2, 150 nM His-KEAP1; Rep 2; control for I86V
[6] = biological target: KEAP1 (wild-type full-length), His-tagged (human) (UniProt Q14145); assay: AlphaScreen; 19.2 nM FLAG-NRF2, 150 nM His-KEAP1; Repeat 2 (same value as in Table 26)
[7] = biological target: KEAP1 (wild-type full-length), His-tagged (human) (UniProt Q14145); assay: AlphaScreen; 38.4 nM FLAG-NRF2, 150 nM His-KEAP1; Repeat 2 (same value as in Table 26)
[8] = biological target: KEAP1 (wild-type full-length), His-tagged (human) (UniProt Q14145); assay: AlphaScreen; NRF2 wt isoform 1 9.6 nM, KEAP1 150 nM; set as the 100 % reference for I86V
[9] = biological target: KEAP1 (wild-type full-length), His-tagged (human) (UniProt Q14145); assay: AlphaScreen; NRF2 wt isoform 1 38.4 nM, KEAP1 150 nM; set as the 100 % reference for Q75R
[10] = biological target: KEAP1 (wild-type full-length), His-tagged (human) (UniProt Q14145); assay: AlphaScreen; 4.8 nM FLAG-NRF2, 150 nM His-KEAP1; signal against NRF2 only; control for I86V
[11] = biological target: KEAP1 (wild-type full-length), His-tagged (human) (UniProt Q14145); assay: AlphaScreen; 38.4 nM FLAG-NRF2, 150 nM His-KEAP1; signal against NRF2 only; control for I28V
[12] = biological target: KEAP1 (wild-type full-length), His-tagged (human) (UniProt Q14145); assay: AlphaScreen; FLAG-NRF2 wt isoform 1 2.4 nM, His-KEAP1 150 nM; Rep 1; positive control for Q75R
[13] = biological target: KEAP1 (wild-type full-length), His-tagged (human) (UniProt Q14145); assay: AlphaScreen; FLAG-NRF2 wt isoform 1 19.2 nM, His-KEAP1 150 nM; Rep 1; positive control for I86V
[14] = biological target: KEAP1 (wild-type full-length), His-tagged (human) (UniProt Q14145); assay: AlphaScreen; FLAG-NRF2 wt isoform 1 38.4 nM, His-KEAP1 150 nM; Rep 2; positive control for Q75R
[15] = biological target: KEAP1 (wild-type full-length), His-tagged (human) (UniProt Q14145); assay: AlphaScreen; mean over 9.6, 19.2 and 38.4 nM NRF2 wt isoform 1, KEAP1 150 nM; reference for Q75R
[16] = biological target: KEAP1 (wild-type full-length), His-tagged (human) (UniProt Q14145); assay: AlphaScreen; NRF2 wt isoform 1 153.6 nM, KEAP1 150 nM; signal against NRF2-only control; control for Q75R
[17] = biological target: KEAP1 (wild-type full-length), His-tagged (human) (UniProt Q14145); assay: AlphaScreen; FLAG-NRF2 I86V 4.8 nM, His-KEAP1 150 nM; Rep 1
[18] = biological target: KEAP1 (wild-type full-length), His-tagged (human) (UniProt Q14145); assay: AlphaScreen; FLAG-NRF2 I86V 4.8 nM, His-KEAP1 150 nM; Rep 3
[19] = biological target: KEAP1 (wild-type full-length), His-tagged (human) (UniProt Q14145); assay: AlphaScreen; FLAG-NRF2 I86V 76.8 nM, His-KEAP1 150 nM; Rep 3
[20] = biological target: KEAP1 (wild-type full-length), His-tagged (human) (UniProt Q14145); assay: AlphaScreen; FLAG-NRF2 I86V 307.2 nM, His-KEAP1 150 nM; Rep 1
[21] = biological target: KEAP1 (wild-type full-length), His-tagged (human) (UniProt Q14145); assay: AlphaScreen; NRF2 I86V 2.4 nM, KEAP1 150 nM; signal against NRF2-only control
[22] = biological target: KEAP1 (wild-type full-length), His-tagged (human) (UniProt Q14145); assay: AlphaScreen; NRF2 I86V 153.6 nM, KEAP1 150 nM; signal against NRF2-only control
[23] = biological target: KEAP1 (wild-type full-length), His-tagged (human) (UniProt Q14145); assay: AlphaScreen; NRF2 I86V 38.4 nM, KEAP1 150 nM; relative to wild-type NRF2 isoform 1 (100 %)
[24] = biological target: KEAP1 (wild-type full-length), His-tagged (human) (UniProt Q14145); assay: AlphaScreen; FLAG-NRF2 Q75R 38.4 nM, His-KEAP1 150 nM; Rep 2
[25] = biological target: KEAP1 (wild-type full-length), His-tagged (human) (UniProt Q14145); assay: AlphaScreen; NRF2 Q75R 38.4 nM, KEAP1 150 nM; signal against NRF2-only control
[26] = biological target: KEAP1 (wild-type full-length), His-tagged (human) (UniProt Q14145); assay: AlphaScreen; NRF2 Q75R 38.4 nM, KEAP1 150 nM; relative to wild-type NRF2 isoform 1 (100 %)
[27] = biological target: KEAP1 (wild-type full-length), His-tagged (human) (UniProt Q14145); assay: AlphaScreen; 614.4 nM FLAG-NRF2, 150 nM His-KEAP1; Rep 2

KEAP1 (wild-type full-length), His-tagged (human), sequence (Q14145 2-624 limits assumed): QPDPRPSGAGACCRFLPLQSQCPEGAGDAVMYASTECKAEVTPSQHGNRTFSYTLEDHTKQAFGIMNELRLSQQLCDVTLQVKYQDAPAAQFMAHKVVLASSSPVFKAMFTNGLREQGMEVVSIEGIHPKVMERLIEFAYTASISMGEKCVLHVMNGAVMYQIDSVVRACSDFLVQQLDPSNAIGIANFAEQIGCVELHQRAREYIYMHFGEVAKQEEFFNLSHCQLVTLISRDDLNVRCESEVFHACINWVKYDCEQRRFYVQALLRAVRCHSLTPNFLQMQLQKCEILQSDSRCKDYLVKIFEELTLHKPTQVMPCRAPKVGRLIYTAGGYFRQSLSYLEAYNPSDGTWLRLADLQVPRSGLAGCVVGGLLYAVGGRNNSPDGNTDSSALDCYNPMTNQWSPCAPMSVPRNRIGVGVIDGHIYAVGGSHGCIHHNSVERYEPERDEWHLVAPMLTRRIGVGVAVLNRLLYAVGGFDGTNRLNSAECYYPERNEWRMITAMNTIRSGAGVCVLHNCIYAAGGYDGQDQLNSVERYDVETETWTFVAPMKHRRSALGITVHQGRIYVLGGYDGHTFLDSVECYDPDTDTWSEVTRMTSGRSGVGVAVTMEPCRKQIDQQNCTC

B2: NRF2 isoform 1 (I86V full-length), FLAG-tagged (protein)
chain: MMDLELPPPGLPSQQDMDLIDILWRQDIDLGVSREVFDFSQRRKEYELEKQKKLEKERQEQLQKEQEKAFFAQLQLDEETGEFLPVQPAQHIQSETSGSANYSQVAHIPKSDALYFDDCMQLLAQTFPFVDDNEVSSATFQSLVPDIPGHIESPVFIATNQAQSPETSVAQVAPVDLDGMQQDIEQVWEELLSIPELQCLNIENDKLVETTMVPSPEAKLTEVDNYHFYSSIPSMEKEVGNCSPHFLNAFEDSFSSILSTEDPNQLTVNSLNSDATVNTDFGDEFYSAFIAEPSISNSMPSPATLSHSLSELLNGPIDVSDLSLCKAFNQNHPESTAEFNDSDSGISLNTSPSVASPEHSVESSSYGDTLLGLSDSEVEELDSAPGSVKQNGPKTPVHSSGDMVQPLSPSQGQSTHVHDAQCENTPEKELPVSPGHRKTPFTKDKHSSRLEAHLTRDELRAKALHIPFPVEKIINLPVVDFNEMMSKEQFNEAQLALIRDIRRRGKNKVAAQNCRKRKLENIVELEQDLDHLKDEKEKLLKEKGENDKSLHLLKKQLSTLYLEVFSMLRDEDGKPYSPSEYSLQQTRDGNVFLVPKSKKPDVKKN
A-counts (NRF2 plus KEAP1) [17]: 2170 A-counts | A-counts (NRF2 plus KEAP1) [18]: 2180 A-counts | A-counts (NRF2 plus KEAP1) [19]: 2560 A-counts | A-counts (NRF2 plus KEAP1) [20]: 2210 A-counts | S/N [21]: 2.6 | S/N [22]: 2 | Binding Percentage [23]: 93.7%

B4: NRF2 isoform 1 (I28V full-length), FLAG-tagged (protein)
chain: MMDLELPPPGLPSQQDMDLIDILWRQDVDLGVSREVFDFSQRRKEYELEKQKKLEKERQEQLQKEQEKAFFAQLQLDEETGEFLPIQPAQHIQSETSGSANYSQVAHIPKSDALYFDDCMQLLAQTFPFVDDNEVSSATFQSLVPDIPGHIESPVFIATNQAQSPETSVAQVAPVDLDGMQQDIEQVWEELLSIPELQCLNIENDKLVETTMVPSPEAKLTEVDNYHFYSSIPSMEKEVGNCSPHFLNAFEDSFSSILSTEDPNQLTVNSLNSDATVNTDFGDEFYSAFIAEPSISNSMPSPATLSHSLSELLNGPIDVSDLSLCKAFNQNHPESTAEFNDSDSGISLNTSPSVASPEHSVESSSYGDTLLGLSDSEVEELDSAPGSVKQNGPKTPVHSSGDMVQPLSPSQGQSTHVHDAQCENTPEKELPVSPGHRKTPFTKDKHSSRLEAHLTRDELRAKALHIPFPVEKIINLPVVDFNEMMSKEQFNEAQLALIRDIRRRGKNKVAAQNCRKRKLENIVELEQDLDHLKDEKEKLLKEKGENDKSLHLLKKQLSTLYLEVFSMLRDEDGKPYSPSEYSLQQTRDGNVFLVPKSKKPDVKKN
A-counts [27]: 1210 A-counts

Further lines, results first:

A-counts [1]: 2720 A-counts | A-counts [2]: 3300 A-counts | A-counts [3]: 3270 A-counts | A-counts [4]: 3020 A-counts | A-counts [5]: 2790 A-counts | A-counts [6]: 2000 A-counts | A-counts [7]: 1900 A-counts | Binding Percentage [8]: 100% | Binding Percentage [9]: 100% | S/N [10]: 2.8 | S/N [11]: 3.6 | A-counts (NRF2 plus KEAP1) [12]: 419 A-counts | A-counts (NRF2 plus KEAP1) [13]: 3300 A-counts | A-counts (NRF2 plus KEAP1) [14]: 1450 A-counts | Average Binding [15]: 100% | S/N [16]: 2.1
B1: NRF2 isoform 1 (wild-type full-length), FLAG-tagged (protein)
chain: MMDLELPPPGLPSQQDMDLIDILWRQDIDLGVSREVFDFSQRRKEYELEKQKKLEKERQEQLQKEQEKAFFAQLQLDEETGEFLPIQPAQHIQSETSGSANYSQVAHIPKSDALYFDDCMQLLAQTFPFVDDNEVSSATFQSLVPDIPGHIESPVFIATNQAQSPETSVAQVAPVDLDGMQQDIEQVWEELLSIPELQCLNIENDKLVETTMVPSPEAKLTEVDNYHFYSSIPSMEKEVGNCSPHFLNAFEDSFSSILSTEDPNQLTVNSLNSDATVNTDFGDEFYSAFIAEPSISNSMPSPATLSHSLSELLNGPIDVSDLSLCKAFNQNHPESTAEFNDSDSGISLNTSPSVASPEHSVESSSYGDTLLGLSDSEVEELDSAPGSVKQNGPKTPVHSSGDMVQPLSPSQGQSTHVHDAQCENTPEKELPVSPGHRKTPFTKDKHSSRLEAHLTRDELRAKALHIPFPVEKIINLPVVDFNEMMSKEQFNEAQLALIRDIRRRGKNKVAAQNCRKRKLENIVELEQDLDHLKDEKEKLLKEKGENDKSLHLLKKQLSTLYLEVFSMLRDEDGKPYSPSEYSLQQTRDGNVFLVPKSKKPDVKKN

A-counts (NRF2 plus KEAP1) [24]: 1280 A-counts | S/N [25]: 2.4 | Binding Percentage [26]: 73.4%
B3: NRF2 isoform 1 (Q75R full-length), FLAG-tagged (protein)
chain: MMDLELPPPGLPSQQDMDLIDILWRQDIDLGVSREVFDFSQRRKEYELEKQKKLEKERQEQLQKEQEKAFFAQLRLDEETGEFLPIQPAQHIQSETSGSANYSQVAHIPKSDALYFDDCMQLLAQTFPFVDDNEVSSATFQSLVPDIPGHIESPVFIATNQAQSPETSVAQVAPVDLDGMQQDIEQVWEELLSIPELQCLNIENDKLVETTMVPSPEAKLTEVDNYHFYSSIPSMEKEVGNCSPHFLNAFEDSFSSILSTEDPNQLTVNSLNSDATVNTDFGDEFYSAFIAEPSISNSMPSPATLSHSLSELLNGPIDVSDLSLCKAFNQNHPESTAEFNDSDSGISLNTSPSVASPEHSVESSSYGDTLLGLSDSEVEELDSAPGSVKQNGPKTPVHSSGDMVQPLSPSQGQSTHVHDAQCENTPEKELPVSPGHRKTPFTKDKHSSRLEAHLTRDELRAKALHIPFPVEKIINLPVVDFNEMMSKEQFNEAQLALIRDIRRRGKNKVAAQNCRKRKLENIVELEQDLDHLKDEKEKLLKEKGENDKSLHLLKKQLSTLYLEVFSMLRDEDGKPYSPSEYSLQQTRDGNVFLVPKSKKPDVKKN
